Measured values from doi:10.1101/2022.09.13.507756 (bioRxiv, 2022).

B1: Ws0279 (natural protein, UniProt Q7MAG0 24-258, looked up)
chain: QKSTLNEIIKRGELRVGLEPGYLPFEMKDKKGNVIGFDVDLAREMAKAMGVKLKLVPTSWDGLIPGLVTEKFDIIISGMTISQERNLRVNFVEPYIVVGQSLLVKKGLEKGVKSYKDLDKPELTLVTKFGVSAEYAAKRLFKNAKLKTYDTEAEAVQEVLNGKADMFIFDLPFNVAFMAQKGQGYLVHLDTSLTYEPLGWAIKKGDPDFLNWLNHFLAQIKHDGSYDELYERWFV
B2: PaCDTΔC (enzyme, Pseudomonas aeruginosa, UniProt Q01269 26-259, looked up)
chain: QESRLDRILESGVLRVATTGDYKPFSYRTEEGGYAGFDVDMAQRLAESLGAKLVVVPTSWPNLMRDFADDRFDIAMSGISINLERQRQAYFSIPYLRDGKTPITLCSEEARFQTLEQIDQPGVTAIVNPGGTNEKFARANLKKARILVHPDNVTIFQQIVDGKADLMMTDAIEARLQSRLHPELCAVHPQQPFDFAEKAYLLPRDEAFKRYVDQWLHIAEQSGLLRQRMEHWLE
B3: Cyclohexadienyl dehydratase from Pseudomonas aeruginosa (PaCDT) (enzyme, UniProt Q01269 26-268, looked up)
chain: QESRLDRILESGVLRVATTGDYKPFSYRTEEGGYAGFDVDMAQRLAESLGAKLVVVPTSWPNLMRDFADDRFDIAMSGISINLERQRQAYFSIPYLRDGKTPITLCSEEARFQTLEQIDQPGVTAIVNPGGTNEKFARANLKKARILVHPDNVTIFQQIVDGKADLMMTDAIEARLQSRLHPELCAVHPQQPFDFAEKAYLLPRDEAFKRYVDQWLHIAEQSGLLRQRMEHWLEYRWPTAHGK

Experiments:
SEC = molecular target: the molecule itself; test: SEC
SEC + SEC-MALS = molecular target: the molecule itself; test: SEC + SEC-MALS

| Protein | stoichiometry N (SEC) | stoichiometry N (SEC + SEC-MALS) |
| --- | --- | --- |
| B1 | 3 | – |
| B2 | 3 | – |
| B3 | – | 3 |
